# In publication PMC10962793, “Structural and functional characterization of sulfurtransferase from Frondihabitans sp. PAMC28461” (PLOS ONE, 2024):
# Tests used:
# FrST = biological target: T1, FrST (Frondihabitans sp., UniProt Z9JZO3RSK1); experiment: colorimetric ferric thiocyanate assay at […] nm, Michaelis-Menten fit; assay type: biochemical; details: read-out: Kinetic parameters^* / Km
# T1 construct: synthetic gene in pET28a, E. coli BL21(DE3); His-tag cleaved with thrombin; model 302 residues; catalytic Cys247
# CC(CS)C(=O)O = experiment: purified protein; assay type: biochemical, Frondihabitans sp.; details: pH 8.0; 25.0 °C
# CS(=O)(=O)S = experiment: purified protein; assay type: biochemical, Frondihabitans sp.; details: pH 8.0; 25.0 °C
# O=C(O)C(=O)CS = experiment: purified protein; assay type: biochemical, Frondihabitans sp.; details: pH 8.0; 25.0 °C
# O=C(O)CCS = experiment: purified protein; assay type: biochemical, Frondihabitans sp.; details: pH 8.0; 25.0 °C
# O=S(=O)(S)c1ccccc1 = experiment: purified protein; assay type: biochemical, Frondihabitans sp.; details: pH 8.0; 25.0 °C
# [1] = biological target: sulfurtransferase FrST from Frondihabitans sp. PAMC28461 (Frondihabitans sp. PAMC28461); experiment: AUC; sedimentation velocity, 20 mM Tris-HCl pH 8.0, 200 mM NaCl, 20°C, 42,000 RPM, 280 nm, SEDFIT
compound,measurement,setting,value
O=S(O)(O)=S [Sodium thiosulfate],Km,FrST,6.3 ± 0.2 mM
FrST (Frondihabitans sp.),Km,CC(CS)C(=O)O,4.1 ± 0.4 mM
same,Vmax,CC(CS)C(=O)O,17.8 µmol/min/mg
same,kcat/Km,CC(CS)C(=O)O,240 M⁻¹ s⁻¹
same,Km,CS(=O)(=O)S,6.0 ± 0.3 mM
same,Vmax,CS(=O)(=O)S,1490 µmol/min/mg
same,kcat/Km,CS(=O)(=O)S,14200 M⁻¹ s⁻¹
same,Km,O=C(O)C(=O)CS,13.9 ± 2.6 mM
same,Vmax,O=C(O)C(=O)CS,150 µmol/min/mg
same,kcat/Km,O=C(O)C(=O)CS,610 M⁻¹ s⁻¹
same,Km,O=C(O)CCS,10.7 ± 1.3 mM
same,Vmax,O=C(O)CCS,43.7 µmol/min/mg
same,kcat/Km,O=C(O)CCS,250 M⁻¹ s⁻¹
same,Km,O=S(=O)(S)c1ccccc1,6.1 ± 0.9 mM
same,Vmax,O=S(=O)(S)c1ccccc1,7810 µmol/min/mg
same,kcat/Km,O=S(=O)(S)c1ccccc1,73000 M⁻¹ s⁻¹
sulfurtransferase FrST from Frondihabitans sp. PAMC28461 (enzyme),stoichiometry N,[1],2
